Here are results for one molecule from patent publication US20180016346A1 (Kyowa Kirin, published 2018).

Assay [1] concerns the target T1, human prostate specific membrane antigen (hPSMA), membrane form on cells (human, UniProt Q04609 1-750).
T1 construct: endogenous on LNCaP clone FGC cells; also called membrane hPSMA
Description: flow cytometry on hPSMA/L929 cells (FIG. 2). As for the experimental part:
(§1) The cells were suspended in a staining buffer [PBS containing 0.1% NaN₃ and 1% FBS] at a concentration of 1×10⁶ cells/mL, and dispensed in a round-bottom 96-well plate (manufactured by Becton Dickinson) by 100 μL/well. After the centrifugation (2000 rpm, 4° C., 2 minutes), each antibody obtained in Example 7 was added to the pellet obtained by removing the supernatant, and suspended, and then left stand at ice temperature for 30 minutes.
(§2) After the further centrifugation (2000 rpm, 4° C., 2 minutes), the pellet obtained by removing the supernatant was washed twice with 200 μL/well of the staining buffer. Thereafter, 1 μg/mL of RPE fluorescently labeled mouse anti-human antibody (hinge region) clone 4E3 antibody (manufactured by Southern Bioblot) was added thereto by 50 μL/well and incubated at ice temperature for 30 minutes. After washing twice with the staining buffer, the cells were suspended in 200 μL/well of the staining buffer, and the fluorescence intensity of each cell was measured with the flow cytometer FACSCANTO II (manufactured by Becton Dickinson). The obtained results are illustrated in FIG. 2 and FIG. 3.
hPSMA/L929 cells were stained with anti-TRAILR2 monoclonal antibody E11 antibody, anti-hPSMA monoclonal antibody PI134 antibody, or hTRAILR2-hPSMA bispecific antibody E11-CH1-PI101VH antibody, E11-CH1-PN7VH antibody or E11-CH1-PN170VH antibody. The obtained results are illustrated in FIG. 2.
(In flow cytometry, cells or beads pass a laser one at a time.)

For assay [2], the target named is T2, human TRAILR2 (tumor necrosis factor-related apoptosis inducing ligand receptor 2) (human, UniProt O14763 56-440).
T2 construct: whole, on cells; The hTRAILR2/L929 cells are only cited from WO 2002/094880, and the construct expressed on them is not described here; On PC3 and LNCaP clone FGC cells the receptor is endogenous; also called hTRAILR2; death receptor 5
Briefly: flow cytometry on hTRAILR2/L929 cells (FIG. 3). The protocol: as §1
as §2, with “3. […]” for “3.”

T1 sequence (Q04609 whole entry): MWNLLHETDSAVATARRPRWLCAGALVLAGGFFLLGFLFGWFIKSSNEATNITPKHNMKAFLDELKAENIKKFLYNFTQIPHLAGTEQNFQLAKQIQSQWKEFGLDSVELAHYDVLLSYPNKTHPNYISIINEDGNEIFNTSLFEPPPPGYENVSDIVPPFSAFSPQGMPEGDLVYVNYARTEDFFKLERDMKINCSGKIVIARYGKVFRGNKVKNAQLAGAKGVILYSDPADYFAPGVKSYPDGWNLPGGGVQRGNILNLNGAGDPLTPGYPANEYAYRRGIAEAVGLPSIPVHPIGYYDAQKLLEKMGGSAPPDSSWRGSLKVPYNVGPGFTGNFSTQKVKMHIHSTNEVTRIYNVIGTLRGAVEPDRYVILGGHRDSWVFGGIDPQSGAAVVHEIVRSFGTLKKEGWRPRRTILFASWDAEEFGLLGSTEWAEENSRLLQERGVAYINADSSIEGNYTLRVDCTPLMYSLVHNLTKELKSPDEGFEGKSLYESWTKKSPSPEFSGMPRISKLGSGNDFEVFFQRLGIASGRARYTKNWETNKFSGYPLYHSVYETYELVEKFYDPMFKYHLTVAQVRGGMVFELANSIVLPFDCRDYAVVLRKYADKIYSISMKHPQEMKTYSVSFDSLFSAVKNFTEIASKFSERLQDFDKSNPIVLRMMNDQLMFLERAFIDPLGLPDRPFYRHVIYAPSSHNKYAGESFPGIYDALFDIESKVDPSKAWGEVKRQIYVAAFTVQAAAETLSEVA

B1: anti-hPSMA monoclonal antibody PI134 antibody (antibody, human IgG1, V domains shown)
VH: QVQLVQSGAEVKKPGASVKVSCKASGYTFTTYDINWVRQATGQGLEWMGWMNPNNGYTGYAQKFQGRVTMTRNTSISTAYMELSSLRSEDTAVYYCARTNWVYWYFDLWGRGTLVTVSS
VL: EIVLTQSPATLSLSPGERATLSCRASQSVSSFLAWYQQKPGQAPRLLIYDASNRATGIPARFSGSGSGTDFTLTISSLEPEDFAVYYCQQRSNWPLTFGPGTKVDIKR
notes: Its VL is the same as that of the E11 antibody
In the case of B1, the binding result in assay [1] is recorded as “binds”; in assay [2], “no binding”.
